Experimental data: patent publication US20220204633A1 (UNIVERSIT T Z RICH, published 2022)

Target: T1, human recombinant biotinylated FcRn (Immunitrack) (human, UniProt P55899 24-297; P61769 21-119, limits assumed, biotinylated (site not stated))
T1 construct: Immobilized on a ProteOn NLC chip for SPR at pH 6.0; also called human FcRn; human recombinant FcRn
Assay: SPR, human FcRn immobilized, IL-12Fc variants in liquid phase, pH 6.0

T1 sequence (P55899 24-297 limits assumed, chain 1 of 2): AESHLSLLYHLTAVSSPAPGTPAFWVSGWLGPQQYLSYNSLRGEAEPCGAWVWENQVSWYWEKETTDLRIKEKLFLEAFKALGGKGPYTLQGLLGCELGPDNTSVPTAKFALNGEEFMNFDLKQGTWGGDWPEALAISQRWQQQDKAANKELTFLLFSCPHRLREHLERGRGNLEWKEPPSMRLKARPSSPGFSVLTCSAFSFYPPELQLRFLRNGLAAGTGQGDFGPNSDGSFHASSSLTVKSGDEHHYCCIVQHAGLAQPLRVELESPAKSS
T1 sequence (P61769 21-119 limits assumed, chain 2 of 2): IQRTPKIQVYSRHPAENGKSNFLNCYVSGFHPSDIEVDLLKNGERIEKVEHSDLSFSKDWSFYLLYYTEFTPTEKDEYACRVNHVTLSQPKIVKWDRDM

B1: human IL-12Fc NHQ (Fc fusion)
chain: IWELKKDVYVVELDWYPDAPGEMVVLTCDTPEEDGITWTLDQSSEVLGSGKTLTIQVKEFGDAGQYTCHKGGEVLSHSLLLLHKKEDGIWSTDILKDQKEPKNKTFLRCEAKNYSGRFTCWWLTTISTDLTFSVKSSRGSSDPQGVTCGAATLSAERVRGDNKEYEYSVECQEDSACPAAEESLPIEVMVDAVHKLKYENYTSSFFIRDIIKPDPPKNLQLKPLKNSRQVEVSWEYPDTWSTPHSYFSLTFCVQVQGKSKREKKDRVFTDKTSATVICRKNASISVRAQDRYYSSSWSEWASVPCSGGGGSGGGGSGGGGSRNLPVATPDPGMFPCLHHSQNLLRAVSNMLQKARQTLEFYPCTSEEIDHEDITKDKTSTVEACLPLELTKNESCLNSRETSFITNGSCLASRKTSFMMALCLSSIYEDLKMYQVEFKTMNAKLLMDPKRQIFLDQNMLAVIDELMQALNFNSETVPQKSSLEEPDFYKTKIKLCILLHAFRIRAVTIDRVMSYLNASKVDKRVESKYGPPCPPCPAPEFLGGPSVFLFPPKPKDTLMNSRTPEVTCVVVDVSQEDPEVQFNWYVDGVEVHNAKTKPREEQFNSTYRVVSVLTVLHQDWLNGKEYKCKVSNKGLPSSIEKTISKAKGQPREPQVYTLPPSPEEMTKNQVSLTCLVKGFYPSDIAVEWESNGQPENNYKTTPPVLDSDGSFFLYSRLTVDKSRWQEGNVFSCSVMHEALHNQYTQKSLSLSLGK
notes: also called NHQ variant
fold reduction of affinity against IL-12Fc WT: ~8 fold
